According to US20100003690A1 (published 2010):

Target: hERG 1b (human, UniProt Q12809 377-1159)
Experiment: cell-based or functional assay

B1: hERG 1a (other, human, UniProt Q12809 1-1159, looked up)
chain: MPVRRGHVAPQNTFLDTIIRKFEGQSRKFIIANARVENCAVIYCNDGFCELCGYSRAEVMQRPCTCDFLHGPRTQRRAAAQIAQALLGAEERKVEIAFYRKDGSCFLCLVDVVPVKNEDGAVIMFILNFEVVMEKDMVGSPAHDTNHRGPPTSWLAPGRAKTFRLKLPALLALTARESSVRSGGAGGAGAPGAVVVDVDLTPAAPSSESLALDEVTAMDNHVAGLGPAEERRALVGPGSPPRSAPGQLPSPRAHSLNPDASGSSCSLARTRSRESCASVRRASSADDIEAMRAGVLPPPPRHASTGAMHPLRSGLLNSTSDSDLVRYRTISKIPQITLNFVDLKGDPFLASPTSDREIIAPKIKERTHNVTEKVTQVLSLGADVLPEYKLQAPRIHRWTILHYSPFKAVWDWLILLLVIYTAVFTPYSAAFLLKETEEGPPATECGYACQPLAVVDLIVDIMFIVDILINFRTTYVNANEEVVSHPGRIAVHYFKGWFLIDMVAAIPFDLLIFGSGSEELIGLLKTARLLRLVRVARKLDRYSEYGAAVLFLLMCTFALIAHWLACIWYAIGNMEQPHMDSRIGWLHNLGDQIGKPYNSSGLGGPSIKDKYVTALYFTFSSLTSVGFGNVSPNTNSEKIFSICVMLIGSLMYASIFGNVSAIIQRLYSGTARYHTQMLRVREFIRFHQIPNPLRQRLEEYFQHAWSYTNGIDMNAVLKGFPECLQADICLHLNRSLLQHCKPFRGATKGCLRALAMKFKTTHAPPGDTLVHAGDLLTALYFISRGSIEILRGDVVVAILGKNDIFGEPLNLYARPGKSNGDVRALTYCDLHKIHRDDLLEVLDMYPEFSDHFWSSLEITFNLRDTNMIPGSPGSTELEGGFSRQRKRKLSFRRRTDKDTEQPGEVSALGPGRAGAGPSSRGRPGGPWGESPSSGPSSPESSEDEGPGRSSSPLRLVPFSSPRPPGEPPGGEPLMEDCEKSSDTCNPLSGAFSGVSNIFSFWGDSRGRQYQELPRCPAPTPSLLNIPLSSPGRRPRGDVESRLDALQRQLNRLETRLSADMATVLQLLQRQMTLVPPAYSAVTTPGPGPTSTSPLLPVSPLPTLTLDSLSQVSQFMACEELPPGAPELPQEGPTRRLSLPGQLGALTSQPLHRHGSDPGS
In the case of B1, the “hERG 1b maturation by Western blot analysis” value is reported as ~3 fold.
